Assay [1] has as its target T1, GFP-GBF1-Y876F immunoprecipitated from cells expressing active SrcEG (human, UniProt Q92538-1 1-1859, Y876F).
T1 construct: GBF1, human, with Y876F; source: expressed in cells coexpressing active SrcEG, immunoprecipitated on GFP-trap agarose beads; not shown: GFP, N-terminal, kept
The assay is described as follows: pull-down; in vitro Arf1 binding assay: NGFP-GBF1 (wild type or mutant) immunoprecipitated on GFP-trap agarose beads from cells expressing SrcKM or SrcEG, incubated with 10 µg recombinant Arf1-del17 protein for 1 hr at 4°C in the presence of GDP; washed three times with HKMT buffer (20 mM HEPES pH 7.4, 0.1 M KCl, 1 mM MgCl2, 0.5% Triton X-100); bound Arf1 by western blot. The following applies: both partners purified. (In general: In western blotting, separated proteins are transferred to a membrane and probed.)

Assay [2] concerns the target T2, GFP-GBF1-Y898F immunoprecipitated from cells expressing active SrcEG (human, UniProt Q92538-1 1-1859, Y898F).
T2 construct: GBF1, human, with Y898F; source: expressed in cells coexpressing active SrcEG, immunoprecipitated on GFP-trap agarose beads; not shown: GFP, N-terminal, kept
Described as above. The following applies: both partners purified.

Assay [3] has as its target T3, GFP-GBF1-Y876.898F double mutant immunoprecipitated from cells expressing active SrcEG (human, UniProt Q92538-1 1-1859, Y876F | Y898F).
T3 construct: GBF1, human, with Y876F and Y898F; source: expressed in cells coexpressing active SrcEG, immunoprecipitated on GFP-trap agarose beads; not shown: GFP, N-terminal, kept
The assay is described as above. The following applies: both partners purified.

Assay [4] addresses T4, GFP-GBF1 (wild type) immunoprecipitated from cells expressing active SrcEG (tyrosine-phosphorylated GBF1) (human, UniProt Q92538-1 1-1859, phosphotyrosine at Y876 and Y898 and at eight other tyrosines (10 in all by mass spectrometry; positions 317, 377, 515 and five tyrosines in HDS2/3 are named)). The assay is described as follows: cell-based or functional assay.
In assay [5] the target is T4, GFP-GBF1 (wild type) immunoprecipitated …. The assay can be described thus: pull-down; in vitro Arf1 binding assay: NGFP-GBF1 immunoprecipitated on GFP-trap agarose beads from cells expressing SrcKM or SrcEG, incubated with 4 mg lysate of HEK293T cells expressing Arf1-V5 (pre-cleared) for 1 hr at 4°C in the presence of GDP; washed three times with HKMT buffer (20 mM HEPES pH 7.4, 0.1 M KCl, 1 mM MgCl2, 0.5% Triton X-100); bound Arf1 by immunoblot. The settings on record: one partner purified.

Experimental findings from article PMC8727025, “Src activates retrograde membrane traffic through phosphorylation of GBF1” (eLife, 2021) are described below.

T4 sequence (Q92538 other isoform, or with tags, fused parts or gaps): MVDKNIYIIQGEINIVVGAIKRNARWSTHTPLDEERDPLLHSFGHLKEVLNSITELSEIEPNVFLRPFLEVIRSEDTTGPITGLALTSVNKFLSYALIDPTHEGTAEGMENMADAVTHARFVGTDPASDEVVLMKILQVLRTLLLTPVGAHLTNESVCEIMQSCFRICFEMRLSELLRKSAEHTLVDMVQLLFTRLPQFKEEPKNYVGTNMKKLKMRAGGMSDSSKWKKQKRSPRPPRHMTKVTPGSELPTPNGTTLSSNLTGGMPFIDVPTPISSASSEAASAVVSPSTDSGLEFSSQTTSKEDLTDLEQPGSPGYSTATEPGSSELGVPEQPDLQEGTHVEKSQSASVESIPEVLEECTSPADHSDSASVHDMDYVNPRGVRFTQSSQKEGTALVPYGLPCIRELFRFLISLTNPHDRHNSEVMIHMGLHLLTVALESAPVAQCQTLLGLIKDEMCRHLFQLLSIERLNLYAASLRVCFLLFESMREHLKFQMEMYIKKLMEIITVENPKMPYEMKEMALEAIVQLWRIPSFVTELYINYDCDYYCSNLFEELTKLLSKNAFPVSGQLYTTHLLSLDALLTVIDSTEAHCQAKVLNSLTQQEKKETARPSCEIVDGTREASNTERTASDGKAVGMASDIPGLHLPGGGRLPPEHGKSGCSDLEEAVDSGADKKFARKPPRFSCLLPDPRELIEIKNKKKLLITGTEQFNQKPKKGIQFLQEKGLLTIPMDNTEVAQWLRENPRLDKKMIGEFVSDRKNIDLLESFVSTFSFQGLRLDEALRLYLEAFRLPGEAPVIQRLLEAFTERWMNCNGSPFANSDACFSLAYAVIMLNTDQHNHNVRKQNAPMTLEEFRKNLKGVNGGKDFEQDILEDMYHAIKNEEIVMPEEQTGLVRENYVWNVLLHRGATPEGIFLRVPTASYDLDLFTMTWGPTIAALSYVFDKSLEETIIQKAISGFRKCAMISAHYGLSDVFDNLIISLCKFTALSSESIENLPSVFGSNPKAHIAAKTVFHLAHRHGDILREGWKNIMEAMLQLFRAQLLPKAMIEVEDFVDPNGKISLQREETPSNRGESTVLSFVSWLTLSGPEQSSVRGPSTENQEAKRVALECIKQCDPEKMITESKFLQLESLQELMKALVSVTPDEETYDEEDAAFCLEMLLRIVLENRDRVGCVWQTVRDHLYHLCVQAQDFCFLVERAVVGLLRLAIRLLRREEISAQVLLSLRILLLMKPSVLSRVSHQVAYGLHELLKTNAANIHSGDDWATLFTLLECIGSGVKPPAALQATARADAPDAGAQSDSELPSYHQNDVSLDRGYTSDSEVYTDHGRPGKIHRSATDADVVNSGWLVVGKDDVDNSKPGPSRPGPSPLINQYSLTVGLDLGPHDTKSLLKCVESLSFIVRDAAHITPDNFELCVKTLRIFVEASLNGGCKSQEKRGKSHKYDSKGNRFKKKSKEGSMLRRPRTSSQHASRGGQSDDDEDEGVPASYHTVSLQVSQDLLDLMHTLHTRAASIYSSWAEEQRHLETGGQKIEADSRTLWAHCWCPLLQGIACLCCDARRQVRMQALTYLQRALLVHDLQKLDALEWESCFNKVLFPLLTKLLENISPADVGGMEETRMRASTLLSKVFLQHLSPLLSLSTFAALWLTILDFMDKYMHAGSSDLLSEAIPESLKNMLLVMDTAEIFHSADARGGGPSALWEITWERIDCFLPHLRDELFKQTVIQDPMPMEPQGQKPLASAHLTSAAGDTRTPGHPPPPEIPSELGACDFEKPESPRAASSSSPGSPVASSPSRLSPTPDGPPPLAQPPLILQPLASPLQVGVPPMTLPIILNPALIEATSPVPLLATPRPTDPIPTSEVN
T1 sequence (Q92538 other isoform, or with tags, fused parts or gaps Y876F | Y876F | Y876F Y876F): as the sequence (Q92538 other isoform, or with tags, fused parts or gaps) above, with Y876F counted along it
T3 sequence (Q92538 other isoform, or with tags, fused parts or gaps Y876F | Y898F | Y876F | Y898F | mutant): as the sequence (Q92538 other isoform, or with tags, fused parts or gaps) above, with Y876F, Y898F counted along it
T2 sequence (Q92538 other isoform, or with tags, fused parts or gaps Y898F | Y898F | Y898F Y898F): as the sequence (Q92538 other isoform, or with tags, fused parts or gaps) above, with Y898F counted along it

B1: Arf1-del17-His, recombinant Arf1 deleted of the first 17 amino acids (domain or fragment)
chain: not shown
notes: Arf1 small GTPase deleted of the first 17 amino acids; The assay was done in the presence of GDP; also called Arf1-His; recombinant Arf1-del17 protein; source: bacterially produced and purified
With B1, the “percent reduction of bound Arf1 against wild-type GFP-GBF1 from SrcEG cells” value in assay [1] was 40%; in assay [2] it was 60%; in assay [3], greater than 70%.

B2: C-terminal V5-tagged Arf1 (Arf1-V5) (natural protein)
chain: not shown
notes: Arf1 small GTPase (ADP-ribosylation factor 1); The assay was done in the presence of GDP; source: HEK293T cells expressing Arf1-V5, in lysate (pre-cleared with agarose beads); not shown: V5, C-terminal, kept
As for B2, the “Arf1-GTP levels (GGA3 PBD bead pull-down of endogenous Arf1-GTP) in HEK-IS cells expressing GFP-GBF1, after imidazole activation of Src8A7F, 0 to 45 min, peak at 10 min” value in assay [4] is roughly 3 fold. Besides, the “fold increase in bound Arf1-V5 against GFP-GBF1 from SrcKM cells” value in assay [5] came to 2 fold.
